# Assay results reported in PMC11088181, “Monocytes release cystatin F dimer to associate with Aβ and aggravate amyloid pathology and cognitive deficits in Alzheimer’s disease” (Journal of Neuroinflammation, 2024).
# B1: cystatin F in human plasma (natural protein, human (endogenous in plasma), UniProt O76096 20-145, looked up)
# chain: GPSPDTCSQDLNSRVKPGFPKTIKTNDPGVLQAARYSVEKFNNCTNDMFLFKESRITRALVQIVKGLKYMLEVEIGRTTCKKNQHLRLDDCDFQTNHTLKQTLSCYSEVWVVPWLQHFEVPVLRCH
# notes: cystatin F, secreted form in plasma; also called secreted cystatin F; cystatin F dimer; source: endogenous, human plasma (AD patients and controls)
# B2: native cystatin F in cultured monocytes (natural protein, UniProt O76096 20-145, looked up)
# chain: B1 chain
# notes: cystatin F of cultured monocytes; also called intracellular cystatin F protein; extracellular proteins; source: endogenous, cultured monocytes (intracellular and extracellular)
# Target: the molecule itself
# Experiment: native gel or EMSA; nondenaturing gel (loading buffer without DTT) and western blot with anti-cystatin F; plasma diluted in PBS, or cultured monocytes
row,Protein,stoichiometry N
1,B1,2
2,B2,2
